Residue numbers refer to the chain shown, from its start. Names and notes keep the numbering of the source.
T1: human β-Klotho extracellular domain (aa1–992) fused with a 6 × His tag at the C-terminus (human, UniProt Q86Z14 1-992, biotin (EZ-Link Sulfo-NHS-LC-Biotin) in the bio-layer interferometry)
T1 construct: signal peptide in the construct; human β-Klotho extracellular domain, aa1–992 of the full-length protein aa1-1044 (NM_175737); also called β-Klotho ECD 6 × His; soluble human β-Klotho; source: CHO-EBNA1, transiently transfected, conditioned medium; not shown: His6, C-terminal, kept
T1 sequence (looked up): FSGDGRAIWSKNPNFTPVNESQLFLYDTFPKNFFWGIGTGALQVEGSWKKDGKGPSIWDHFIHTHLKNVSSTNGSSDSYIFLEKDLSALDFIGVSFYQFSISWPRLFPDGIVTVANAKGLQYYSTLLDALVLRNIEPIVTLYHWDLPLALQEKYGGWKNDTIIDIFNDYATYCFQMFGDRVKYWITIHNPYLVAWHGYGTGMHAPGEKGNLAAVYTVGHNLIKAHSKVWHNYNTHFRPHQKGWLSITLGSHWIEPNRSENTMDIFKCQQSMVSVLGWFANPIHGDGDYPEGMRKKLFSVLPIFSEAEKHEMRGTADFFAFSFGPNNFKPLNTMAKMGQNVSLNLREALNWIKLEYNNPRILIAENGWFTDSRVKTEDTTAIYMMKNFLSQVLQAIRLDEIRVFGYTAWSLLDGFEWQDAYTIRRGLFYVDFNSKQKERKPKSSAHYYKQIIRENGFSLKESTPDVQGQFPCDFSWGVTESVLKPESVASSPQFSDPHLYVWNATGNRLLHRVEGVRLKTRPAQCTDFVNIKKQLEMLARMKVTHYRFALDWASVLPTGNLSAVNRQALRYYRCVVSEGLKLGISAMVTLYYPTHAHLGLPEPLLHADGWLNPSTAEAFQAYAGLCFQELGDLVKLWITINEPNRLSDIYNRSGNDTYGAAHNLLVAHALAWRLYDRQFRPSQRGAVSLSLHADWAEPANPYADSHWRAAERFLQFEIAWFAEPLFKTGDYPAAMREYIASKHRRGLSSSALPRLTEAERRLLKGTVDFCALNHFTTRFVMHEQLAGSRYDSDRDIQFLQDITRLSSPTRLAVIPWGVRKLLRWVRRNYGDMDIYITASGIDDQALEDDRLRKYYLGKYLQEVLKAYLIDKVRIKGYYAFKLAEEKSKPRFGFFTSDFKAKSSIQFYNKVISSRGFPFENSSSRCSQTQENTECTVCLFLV

B1: mature human FGF21 polypeptide fused with the human Fc fragment at the N-terminus (Fc-FGF21), wild type (Fc fusion, UniProt Q9NSA1 29-209, looked up)
chain: HPIPDSSPLLQFGGQVRQRYLYTDDAQQTEAHLEIREDGTVGGAADQSPESLLQLKALKPGVIQILGVKTSRFLCQRPDGALYGSLHFDPEACSFRELLLEDGYNVYQSEAHGLPLHLPGNKSPHRDPAPRGPARFLPLPGLPPALPEPPGILAPQPPDVGSSDPLSMVGPSQGRSPSYAS
notes: human FGF21, mature polypeptide (NM_019113); also called WT Fc-FGF21; source: HEK293-EBNA1, transiently transfected, purified (protein A, MabSelect SuRe); not shown: Fc (human), N-terminal, kept
B2: mature human FGF21 (ligand, UniProt Q9NSA1 29-209, looked up)
chain: B1 chain
modifications: biotin (EZ-Link Sulfo-NHS-LC-Biotin) in the solid-phase binding assay; biotinylated as the labelled ligand in AlphaScreen
notes: human FGF21, mature protein; also called native FGF21
B3: Fc-FGF21, 194L to arginine (Fc fusion, human, UniProt Q9NSA1 29-209, looked up)
chain: B1 chain with L166R
notes: human FGF21, mature polypeptide (NM_019113); also called L194R; source: HEK293-EBNA1, transiently transfected, purified (protein A); not shown: Fc (human), N-terminal, kept
B4: Fc-FGF21, 193P to arginine (Fc fusion, human, UniProt Q9NSA1 29-209, looked up)
chain: B1 chain with P165R
notes: human FGF21, mature polypeptide (NM_019113); also called P193R; source: HEK293-EBNA1, transiently transfected, purified (protein A); not shown: Fc (human), N-terminal, kept
B5: Fc-FGF21, 196M to arginine (Fc fusion, human, UniProt Q9NSA1 29-209, looked up)
chain: B1 chain with M168R
notes: human FGF21, mature polypeptide (NM_019113); also called M196R; source: HEK293-EBNA1, transiently transfected, purified (protein A); not shown: Fc (human), N-terminal, kept
B6: Fc-FGF21, 194L to alanine (Fc fusion, human, UniProt Q9NSA1 29-209, looked up)
chain: B1 chain with L166A
notes: human FGF21, mature polypeptide (NM_019113); also called L194A; source: HEK293-EBNA1, transiently transfected, purified (protein A); not shown: Fc (human), N-terminal, kept
B7: Fc-FGF21, 193P to alanine (Fc fusion, human, UniProt Q9NSA1 29-209, looked up)
chain: B1 chain with P165A
notes: human FGF21, mature polypeptide (NM_019113); also called P193A; source: HEK293-EBNA1, transiently transfected, purified (protein A); not shown: Fc (human), N-terminal, kept
B8: Fc-FGF21, 192D to arginine (Fc fusion, human, UniProt Q9NSA1 29-209, looked up)
chain: B1 chain with D164R
notes: human FGF21, mature polypeptide (NM_019113); also called D192R; source: HEK293-EBNA1, transiently transfected, purified (protein A); not shown: Fc (human), N-terminal, kept
B9: Fc-FGF21, 192D to alanine (Fc fusion, human, UniProt Q9NSA1 29-209, looked up)
chain: B1 chain with D164A
notes: human FGF21, mature polypeptide (NM_019113); also called D192A; source: HEK293-EBNA1, transiently transfected, purified (protein A); not shown: Fc (human), N-terminal, kept
B10: Fc-FGF21, 196M to alanine (Fc fusion, human, UniProt Q9NSA1 29-209, looked up)
chain: B1 chain with M168A
notes: human FGF21, mature polypeptide (NM_019113); also called M196A; source: HEK293-EBNA1, transiently transfected, purified (protein A); not shown: Fc (human), N-terminal, kept

biological target: T1, human β-Klotho extracellular domain …; assay: BLI; Octet RED; biotinylated β-Klotho ECD 6×His (10 µg/mL) loaded on streptavidin biosensors; FGF21 or Fc-FGF21 associated 5 min, dissociated 5 min in kinetics buffer; 1:1 binding model; settings: both partners purified

fold increase in affinity over native FGF21 [fold]	Binder
4	B1

biological target: T1, human β-Klotho extracellular domain …; assay: ELISA; solid-phase binding assay: β-Klotho (500 ng/mL) captured from CHO-EBNA1 conditioned media by plate-coated mouse anti-human β-Klotho antibody; biotinylated FGF21 titrated, 1.5 h room temperature; streptavidin-HRP; three-parameter logistic fit; settings: one partner purified

EC50 [nM]	Binder
3.98	B2

biological target: T1, human β-Klotho extracellular domain …; assay: ELISA; solid-phase binding assay: WT β-Klotho captured from CHO-EBNA1 conditioned media by plate-coated anti-β-Klotho antibody; purified Fc-FGF21 titrated, 1.5 h room temperature; detected with anti-human IgG Fc-HRP; settings: one partner purified

fold increase in EC50 compared to WT [fold]	Binder
> 100	B3
> 100	B4
> 100	B5
> 100	B6
> 100	B7
> 100	B8
> 100	B9
> 100	B10

Reference: article PMC6056499, “A systematic dissection of sequence elements determining β-Klotho and FGF interaction and signaling” (Scientific Reports, 2018)
